Experimental data as given in patent US20250277199, “NOVEL CRISPR-CAS NUCLEASES FROM METAGENOMES” (Brain Biotech AG, published 2025).

Target: T1, BMC01 (uncultured bacterium (metagenome))
T1 chain: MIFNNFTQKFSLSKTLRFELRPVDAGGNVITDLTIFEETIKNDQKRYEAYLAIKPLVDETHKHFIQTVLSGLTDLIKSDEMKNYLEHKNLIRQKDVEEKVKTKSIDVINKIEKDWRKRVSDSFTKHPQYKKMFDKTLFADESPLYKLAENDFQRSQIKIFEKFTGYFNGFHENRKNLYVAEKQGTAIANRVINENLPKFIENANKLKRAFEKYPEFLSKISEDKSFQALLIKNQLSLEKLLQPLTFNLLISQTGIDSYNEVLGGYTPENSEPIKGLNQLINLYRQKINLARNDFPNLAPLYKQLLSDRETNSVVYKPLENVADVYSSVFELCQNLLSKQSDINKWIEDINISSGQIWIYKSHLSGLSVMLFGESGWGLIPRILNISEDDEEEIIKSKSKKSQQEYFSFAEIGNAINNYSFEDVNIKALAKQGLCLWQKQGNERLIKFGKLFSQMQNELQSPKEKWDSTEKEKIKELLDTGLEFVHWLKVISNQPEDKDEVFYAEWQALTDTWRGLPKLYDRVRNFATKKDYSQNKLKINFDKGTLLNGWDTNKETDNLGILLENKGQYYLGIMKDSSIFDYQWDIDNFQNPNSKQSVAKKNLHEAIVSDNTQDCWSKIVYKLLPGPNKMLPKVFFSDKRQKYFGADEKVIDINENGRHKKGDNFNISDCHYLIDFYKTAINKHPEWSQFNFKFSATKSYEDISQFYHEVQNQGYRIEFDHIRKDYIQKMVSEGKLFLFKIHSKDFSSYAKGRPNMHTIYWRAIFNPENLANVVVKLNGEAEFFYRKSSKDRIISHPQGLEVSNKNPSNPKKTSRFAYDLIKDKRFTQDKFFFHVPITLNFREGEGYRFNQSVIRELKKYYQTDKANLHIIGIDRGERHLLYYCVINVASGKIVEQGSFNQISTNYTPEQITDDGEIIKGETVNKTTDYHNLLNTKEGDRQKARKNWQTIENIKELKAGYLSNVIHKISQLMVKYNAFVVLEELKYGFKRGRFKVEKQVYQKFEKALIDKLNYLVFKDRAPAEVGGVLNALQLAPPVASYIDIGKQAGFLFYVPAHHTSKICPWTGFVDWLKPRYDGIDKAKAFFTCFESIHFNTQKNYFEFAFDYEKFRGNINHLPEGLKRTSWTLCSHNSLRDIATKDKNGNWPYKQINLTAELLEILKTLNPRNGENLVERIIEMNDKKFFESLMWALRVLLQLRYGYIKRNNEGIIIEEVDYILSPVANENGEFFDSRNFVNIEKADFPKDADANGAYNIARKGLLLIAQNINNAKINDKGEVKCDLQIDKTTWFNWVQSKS
Experiment: cell_activity; PAM not stated; E. coli depletion, 30 C
Summary of the method: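 E. coli carrying arabinose-induced (0.2%) BMC nuclease, grown at 30° C., made electrocompetent and electroporated with 50-100 ng plasmid carrying gRNA against malQ. Transformants plated on selective M9-glucose agar with kanamycin/ampicillin (± nourseothricin), and growth scored after 48 h at 30° C.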

B1: malQ gRNA (BMC stem-loop + 24 nt spacer) ; malQ protospacer (ssRNA ; dsDNA)
RNA: GAUUUCUACUAUUGUAGAUGUGGCGGUACGUUGAUGCAUCGCG
DNA 1: GTGGCGGTACGTTGATGCATCGCG
DNA 2: CGCGATGCATCAACGTACCGCCAC
activity: > 99.9 % colony reduction
